Bounds are passed on as bounds.

For assay [1], the target named is T1, HLA-A*03:01 (human).
T1 construct: Peptide-receptive MHC class I monomer made by UV cleavage of a UV-sensitive ligand
Description: UV ligand exchange ELISA; exchange yield grade. The source says: (§1) Candidate peptides for T cell based therapies according to the present invention were further tested for their MHC binding capacity (affinity). The individual peptide-MHC complexes were produced by UV-ligand exchange, where a UV-sensitive peptide is cleaved upon UV-irradiation, and exchanged with the peptide of interest as analyzed. Only peptide candidates that can effectively bind and stabilize the peptide-receptive MHC molecules prevent dissociation of the MHC complexes. To determine the yield of the exchange reaction, an ELISA was performed based on the detection of the light chain (β2m) of stabilized MHC complexes. The assay was performed as generally described in Rodenko et al. (Rodenko et al., 2006).
(§2) 96 well MAXISorp plates (NUNC) were coated over night with 2 ug/ml streptavidin in PBS at room temperature, washed 4× and blocked for 1 h at 37° C. in 2% BSA containing blocking buffer. Refolded HLA-A*02:01/MLA-001 monomers served as standards, covering the range of 15-500 ng/ml. Peptide-MHC monomers of the UV-exchange reaction were diluted 100-fold in blocking buffer. Samples were incubated for 1 h at 37° C., washed four times, incubated with 2 ug/ml HRP conjugated anti-β2m for 1 h at 37° C., washed again and detected with TMB solution that is stopped with […]. Absorption was measured at 450 nm. Candidate peptides that show a high exchange yield (preferably higher than 50%, most preferred higher than 75%) are generally preferred for a generation and production of antibodies or fragments thereof, and/or T cell receptors or fragments thereof, as they show sufficient avidity to the MHC molecules and prevent dissociation of the MHC complexes.
In general terms: An ELISA detects its analyte on a solid surface through an enzyme-linked reagent.

The target of assay [2] is T2, HLA-B*07:02 (human).
T2 construct: Peptide-receptive MHC class I monomer made by UV cleavage of a UV-sensitive ligand
Description: UV ligand exchange ELISA; exchange yield grade.
Text: as §1, §2

KTSNIVKIK showed a peptide exchange yield in assay [1] of 20 to 50%.

SVLDLSVHK showed a peptide exchange yield in assay [1] of 20 to 50%.

The molecule MPLSTIREV returned a peptide exchange yield in assay [2] of 20 to 50%.

In turn, KATGAATPK registered a peptide exchange yield in assay [1] of 20 to 50%.

Regarding KTLPAMLGTGK, the peptide exchange yield in assay [1] was 20 to 50%.

For the molecule RVLTGVFTK, in assay [1], the peptide exchange yield lay in the range of 20 to 50%.

In turn, VPNLQTVSV yielded a peptide exchange yield in assay [2] of 20 to 50%.

Take HSYSSPSTK: the peptide exchange yield in assay [1] lay within 50 to 75%.

SVFEGDSIVLK registered a peptide exchange yield in assay [1] of 20 to 50%.

On to KAFNQSSTLTK, for which the peptide exchange yield in assay [1] lay in the range of 50 to 75%.

Consider ASTTVLALK, for which, in assay [1], the peptide exchange yield fell in the range of 20 to 50%.

Consider SPADHRGYASL, for which, in assay [2], the peptide exchange yield lay in the range of 20 to 50%.

The molecule SPKESENAL came in with a peptide exchange yield in assay [2] of 20 to 50%.

Regarding RTYGFVLTF, in assay [1], the peptide exchange yield is 20 to 50%.

LPKVQSIQL displayed a peptide exchange yield in assay [2] of 20 to 50%.

Regarding RVYNIYIRR, in assay [1], the peptide exchange yield was 20 to 50%.

The molecule VVFPFPVNK returned a peptide exchange yield in assay [1] of 50 to 75%.

For ATKSPAKPK, the peptide exchange yield in assay [1] is 50 to 75%.

Consider SPSLPSRTL, for which the peptide exchange yield in assay [2] was 20 to 50%.

On to SVYSETSNMDK, for which the peptide exchange yield in assay [1] fell in the range of 50 to 75%.

The molecule LPYDSKHQI gave a peptide exchange yield in assay [2] of 20 to 50%.

With ATGAATPKK, the peptide exchange yield in assay [1] fell in the range of 50 to 75%.

SVSSSTHFTR yielded a peptide exchange yield in assay [1] of 20 to 50%.

YPGSDRIML registered a peptide exchange yield in assay [2] of 20 to 50%.

With RMYSQLKTLQK, the peptide exchange yield in assay [1] was 50 to 75%.

Molecule KPMKSVLVV showed a peptide exchange yield in assay [2] of 50 to 75%.

VILESIFLK: the peptide exchange yield in assay [1] was in the range of 20 to 50%.

In assay [2], RPSNKAPLL had a peptide exchange yield of 50 to 75%.

As to SPWLHAPSL, the peptide exchange yield in assay [2] was 20 to 50%.

RIKAPSRNTIQK: in assay [1], the peptide exchange yield was 20 to 50%.

In assay [2], APSKTSLIM gave a peptide exchange yield of 20 to 50%.

Consider ATYNKQPMYR, for which the peptide exchange yield in assay [1] was 50 to 75%.

Turning to KAKAAAKPK, the peptide exchange yield in assay [1] is 20 to 50%.

In assay [1], RSKEYIRKK returned a peptide exchange yield of 10 to 20%.

For the molecule RIKPPGPTAVPK, in assay [1], the peptide exchange yield lay within 50 to 75%.

For the molecule KVYDPVSEY, in assay [1], the peptide exchange yield was in the range of 20 to 50%.

The molecule LLWHWDTTQSLK registered a peptide exchange yield in assay [1] of 10 to 20%.

Turning to KLMETSMGF, the peptide exchange yield in assay [1] is 20 to 50%.

The molecule SPFSFHHVL showed a peptide exchange yield in assay [2] of 20 to 50%.

Molecule SPRSWIQVQI gave a peptide exchange yield in assay [2] of 50 to 75%.

In turn, MPSSDTTVTF showed a peptide exchange yield in assay [2] of 50 to 75%.

APAPAEKTPV showed a peptide exchange yield in assay [2] of 50 to 75%.

The molecule KLNPQQAPLY yielded a peptide exchange yield in assay [1] of 20 to 50%.

In turn, SVAHLLSKY displayed a peptide exchange yield in assay [1] of 20 to 50%.

Take KAKKPAGAAK: the peptide exchange yield in assay [1] is 50 to 75%.

RPFADLLGTAF yielded a peptide exchange yield in assay [2] of 50 to 75%.

SPRVYWLGL: the peptide exchange yield in assay [2] lay within 50 to 75%.

With RIYDEILQSK, the peptide exchange yield in assay [1] was 20 to 50%.

Turning to QPRLFTMDL, the peptide exchange yield in assay [2] lay in the range of 50 to 75%.

RVFPSPMRI returned a peptide exchange yield in assay [1] of 20 to 50%.

For SPSLPNITL, the peptide exchange yield in assay [2] lay in the range of 50 to 75%.

In assay [1], TTVPHVFSK showed a peptide exchange yield of 20 to 50%.

SPLGSLARSSL showed a peptide exchange yield in assay [2] of more than 75%.

Molecule QPSPARAPAEL came in with a peptide exchange yield in assay [2] of 20 to 50%.

KARKSAGAAK: the peptide exchange yield in assay [1] lay in the range of 50 to 75%.

For the molecule APRPAGSYL, the peptide exchange yield in assay [2] is 50 to 75%.

For the molecule SPLSHHSQL, the peptide exchange yield in assay [2] lay within 20 to 50%.

As to RPHIPISKL, in assay [2], the peptide exchange yield was in the range of 20 to 50%.

For SPRNLQPQRAAL, the peptide exchange yield in assay [2] lay within 50 to 75%.

For GLLEEALFY, the peptide exchange yield in assay [1] fell in the range of 20 to 50%.

(Values after patent US20180291083A1 (IMMATICS BIOTECHNOLOGIES, published 2018).)
